# Results published in patent US20250361274A1, “PEPTIDE AND PEPTIDE-CONTAINING AGENT” (PEPTIDREAM INC., priority 2022, published 2025).
# Numbered stars: 1 amine (or outer) side, 2 acyl side, 3 side chain; on linkers, the order of the positions; unused ones are H or OH. Bridge positions count the residues as written; N and C are the ends. Square brackets hold non-standard residues; d marks the D form. Ends that are not written are not given here. Peptide text beside a SMILES is read from it. KCOpipzaa = N6-(4-(carboxymethyl)piperazine-1-carbonyl)-L-lysine, O=C(NCCCC[C@H](N[*:1])C(=O)[*:2])N1CCN(CC(=O)[*:3])CC1; F3aa = (S)-2-amino-3-[3-(carboxymethyl)phenyl]propanoic acid, O=C([C@H](Cc1cccc(CC(=O)[*:3])c1)N[*:1])[*:2]; 3Pal(6-Ph) = N[C@@H](Cc1ccc(-c2ccccc2)nc1)C(=O)O; Phe(4-COOH) = N[C@@H](Cc1ccc(C(=O)O)cc1)C(=O)O; NMePhe(4-Me) = CN[C@@H](Cc1ccc(C)cc1)C(=O)O; Bip = N[C@@H](Cc1ccc(-c2ccccc2)cc1)C(=O)O; Phe(4-F) = N[C@@H](Cc1ccc(F)cc1)C(=O)O; Ala(4-THP) = N[C@@H](CC1CCOCC1)C(=O)O; cisHyp = O=C(O)[C@@H]1C[C@H](O)CN1; NMeF = CN[C@@H](Cc1ccccc1)C(=O)O; hCit = NC(=O)NCCCC[C@H](N)C(=O)O; 4Pal = N[C@@H](Cc1ccncc1)C(=O)O; Aad = N[C@@H](CCCC(=O)O)C(=O)O; Cha = N[C@@H](CC1CCCCC1)C(=O)O; βAla = NCCC(=O)O
# Molecular target: T1, BMP7 (Homo sapiens, UniProt P18075)
# T1 sequence (P18075 293-431): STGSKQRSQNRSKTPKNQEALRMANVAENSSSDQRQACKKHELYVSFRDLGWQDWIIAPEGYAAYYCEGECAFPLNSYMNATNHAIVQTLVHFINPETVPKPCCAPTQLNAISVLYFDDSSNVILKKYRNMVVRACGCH
# Experiment: BMP7 signal transduction inhibitory activity: SMAD1 phosphorylation by BMP7 stimulus, A549 cells
# Type: cell-based
# Details: A549 cells, 10 nM BMP7; peptides of Synthesis 2; peptide 1, 10, 100 nM
# Method: In the present Example, BMP7 signal transduction inhibitory activity of each peptide consisting of an amino acid sequence set forth in any of SEQ ID NOs: 5 to 240 and 243 to 421 synthesized in Example 10 was verified by phosphorylation of SMAD1 caused by BMP7 stimulus. The evaluation was performed using 10 nM of BMP7 instead of BMP 4. Regarding SEQ ID NOs: 5 to 240, the concentrations of the peptides synthesized in the same manner as in Example 2 (shown as 2 in the row of Synthesis) were 1 nM, 10 nM, and 100 nM, and the concentrations of the peptides synthesized in the same manner as in Example 1 (shown as 1 in the row of Synthesis) were 10 nM, 100 nM, and 1,000 nM, similarly with Example 11. […] Regarding SEQ ID NOs: 243 to 273 and SEQ ID NOs: 299 to 321, the test was performed at the concentrations (10, 100, 1,000 nM) described in Table 6. […] Regarding SEQ ID NOs: 274 to 298, the test was performed at the concentrations (100, 300, 1,000 nM) described in Table 6. […] Regarding SEQ ID NOs: 322 to 370 and SEQ ID NOs: 393 to 421, the test was performed at the concentrations (1, 10, 100 nM). […] Regarding SEQ ID NOs: 371 to 391, the test was performed at the concentrations (10, 30, 90 nM). […] The evaluation tests of the signal transduction inhibitory activities of SEQ ID NOs: 87, 177, and 181 are as follows. Specifically, the inhibitory activity of BMP4 was evaluated in the same manner as in Example 11 that used A549 cells. Eight concentrations of the peptides were used at a common ratio of 1/3 starting from 2 nM. The inhibitory activity of BMP7 was evaluated in the same manner as in Example 12. Eight concentrations of the peptides were used at a common ratio of 1/3 starting from 100 nM. Note that recombinant Human Noggin Protein (R&D) as a positive control was used at the same concentration as that of the peptide. […] The inhibitory activity of BMP7 was evaluated using eight concentrations of the peptides at a common ratio of 1/3 starting from 1,000 nM in the same manner as in Example 12.
row,Molecule,aLISA BMP7
1,"11 (ARVYVDRFKYPFYFFSCG; not fully specified; MOD_RES 8 F represents (S)-3-(1,1'-Biphenyl-4-yl)-2-aminopropanoic acid(Bph); MOD_RES 12 F represents (S)-3-(1,1'-Biphenyl-4-yl)-2-aminopropanoic acid(Bph); MOD_RES 14 F represents (S)-4-(2-amino-2-carboxyethyl)benzoic acid(F4COO); MOD_RES 15 F represents (S)-4-(2-amino-2-carboxyethyl)benzoic acid(F4COO)) [compound 11]",C (showed less than 50% of inhibitory activity in 10 nM-addition zone and showed 50% or more of inhibitory activity in 100 nM-addition zone)

# Same assay, conditions: Table 2-2; 277 from 1,000 nM (1/3), 417 from 300 nM (1/4)
row,IC50,Molecule
1,15.6 nM,Cc1ccc(C[C@H]2C(=O)N[C@@H](CC(C)C)C(=O)N3C[C@@H](O)C[C@H]3C(=O)N[C@H](C(=O)NCCC(=O)N[C@H](CCC(=O)O)C(=O)O)CSCC(=O)N[C@@H](Cc3ccc(F)cc3)C(=O)NCC(=O)N(C)[C@@H](Cc3ccccc3)C(=O)NCC(=O)N[C@@H](Cc3ccc(-c4ccccc4)nc3)C(=O)NCC(=O)N[C@@H](CC(=O)O)C(=O)N[C@@H](CCC(=O)O)C(=O)N[C@@H](CC3CCCCC3)C(=O)N[C@@H](CCCC(=O)O)C(=O)N2C)cc1 [Peptide 417] ({CH2CO}-[Phe(4-F)]G[NMeF]G[3Pal(6-Ph)]GDE[Cha][Aad][NMePhe(4-Me)]L[cisHyp]C[βAla][dE]-OH; thioether N-14)

# Molecular target: T2, BMP4 (Homo sapiens, UniProt P12644)
# T2 sequence (P12644 293-408): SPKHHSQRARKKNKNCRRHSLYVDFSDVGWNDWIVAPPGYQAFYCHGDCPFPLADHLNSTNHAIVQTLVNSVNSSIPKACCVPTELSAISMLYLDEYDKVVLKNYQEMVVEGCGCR
# Experiment: BMP4 signal transduction inhibitory activity: SMAD1 phosphorylation by BMP4 stimulus, AlphaLISA SureFire, A549 cells
# Type: cell-based
# Details: A549 cells, SMAD1 phosphorylation; peptides of Synthesis 2; peptide 0.02, 0.2, 2 nM
# Method: In the present Example, a BMP4 signal transduction inhibitory activity of each peptide consisting of an amino acid sequence set forth in any of SEQ ID NOs: 5 to 240 and 243 to 421 synthesized in Example 10 was verified by phosphorylation of SMAD1 caused by BMP4 stimulus. A549 cells were cultured in MEM (Thermo Fisher Scientific) containing 10% FBS (Thermo Fisher Scientific), 1×Non-essential amino acids (Thermo Fisher Scientific), and 50 μg/mL Gentamicin. After TrypLE (Gibco) was used to peel the cells, seeding was performed in a 96-well plate for adhesion cells so that the number of cells would be 20,000 per well, followed by culturing for 48 hours. After the cells were cultured as described above, the culture medium was replaced with a peptide solution or recombinant Human Noggin Protein (R&D) solution as a positive control diluted to various concentrations in a nutrition-starved culture medium containing 0.1% BSA (Sigma) instead of FBS Thirty minutes after culturing, […], to stimulate it for 60 minutes. The culture medium was removed and the cells were lysed with Lysis Buffer provided with AlphaLISA (registered trademark) SureFire (registered trademark) Ultra SMAD1 (p-[…]/465) Assay kit (PerkinElmer). According to the protocol of the kit, a signal was detected using SpectraMax (registered trademark) Paradigm (registered trademark) multimode microplate reader (Molecular Devices). The obtained signal was analysed using GraphPad Prism (GraphPad Software). The % inhibition was calculated by considering non-stimulation as 100% inhibition and BMP stimulation only as 0% inhibition. Regarding SEQ ID NOs: 5 to 187, the concentrations of the peptides synthesized in the same manner as in Example 2 (shown as 2 in the row of Synthesis) were 0.02 nM, 0.2 nM, and 2 nM, and the concentrations of the peptides synthesized in the same manner as in Example 1 (shown as 1 in the row of Synthesis) were 0.2 nM, 2 nM, and 20 nM. The evaluation results were based on the results of evaluation using the peptides synthesized in the same manner as in Example 2. […] Regarding SEQ ID NOs: 243 to 321, the test was performed at the concentrations described in Table 6. […] Regarding SEQ ID NOs: 322 to 421, the test was performed at the concentrations described in Table 7. […] The evaluation tests of the signal transduction inhibitory activities of SEQ ID NOs: 87, 177, and 181 are as follows. Specifically, the inhibitory activity of BMP4 was evaluated in the same manner as in Example 11 that used A549 cells. Eight concentrations of the peptides were used at a common ratio of 1/3 starting from 2 nM. The inhibitory activity of BMP7 was evaluated in the same manner as in Example 12. Eight concentrations of the peptides were used at a common ratio of 1/3 starting from 100 nM. Note that recombinant Human Noggin Protein (R&D) as a positive control was used at the same concentration as that of the peptide. […] The inhibitory activity of BMP7 was evaluated using eight concentrations of the peptides at a common ratio of 1/3 starting from 1,000 nM in the same manner as in Example 12.
row,Molecule,aLISA BMP4
1,"11 (ARVYVDRFKYPFYFFSCG; not fully specified; MOD_RES 8 F represents (S)-3-(1,1'-Biphenyl-4-yl)-2-aminopropanoic acid(Bph); MOD_RES 12 F represents (S)-3-(1,1'-Biphenyl-4-yl)-2-aminopropanoic acid(Bph); MOD_RES 14 F represents (S)-4-(2-amino-2-carboxyethyl)benzoic acid(F4COO); MOD_RES 15 F represents (S)-4-(2-amino-2-carboxyethyl)benzoic acid(F4COO)) [compound 11]",A (showed an inhibitory activity of 50% or more in a zone to which the peptide was added to in an amount of 0.2 nM)

# Same assay, conditions: class of inhibition of SMAD1 phosphorylation by BMP4 stimulus, AlphaLISA, A549 cells
row,Molecule,aLISA BMP4
1,163 ({CH2CO}-ERVYVDR[Bip]SYY[Bip]Y[Phe(4-COOH)][Phe(4-COOH)]SC[βAla][dE]-OH; thioether N-17; not fully specified) [compound 163],A (showed an inhibitory activity of 50% or more in a zone to which the peptide was added to in an amount of 0.2 nM)
2,164 ({CH2CO}-ERVYVDR[Bip]SYV[Bip]Y[Phe(4-COOH)][Phe(4-COOH)]HC[βAla][dE]-OH; thioether N-17; not fully specified) [compound 164],A (showed an inhibitory activity of 50% or more in a zone to which the peptide was added to in an amount of 0.2 nM)
3,169 ({CH2CO}-E[hCit]VY[Ala(4-THP)]DR[Bip]SYV[Bip]Y[Phe(4-COOH)][Phe(4-COOH)]HC[βAla][dE]-OH; thioether N-17; not fully specified) [compound 169],C (showed an inhibitory activity of less than 50% in 0.2 nM-addition zone and showed an inhibitory activity of 50% or more in 2 nM-addition zone were defined as B or C)
4,178 ({CH2CO}-ERV[Phe(4-COOH)][Ala(4-THP)]DR[Bip]PYV[Bip]Y[Phe(4-COOH)][Phe(4-COOH)]SC[βAla][dE]-OH; thioether N-17; not fully specified) [compound 178],A (showed an inhibitory activity of 50% or more in a zone to which the peptide was added to in an amount of 0.2 nM)
5,179 ({CH2CO}-ERV[Phe(4-COOH)][Ala(4-THP)][KCOpipzaa]R[Bip]PY[F3aa][Bip]Y[Phe(4-COOH)][Phe(4-COOH)]SC[βAla][dE]-OH; thioether N-17; not fully specified) [compound 179],C (showed an inhibitory activity of less than 50% in 0.2 nM-addition zone and showed an inhibitory activity of 50% or more in 2 nM-addition zone were defined as B or C)
6,180 ({CH2CO}-ERV[Phe(4-COOH)][Ala(4-THP)][KCOpipzaa]R[Bip]PY[cisHyp][Bip]Y[Phe(4-COOH)][Phe(4-COOH)]SC[βAla][dE]-OH; thioether N-17; not fully specified) [compound 180],A (showed an inhibitory activity of 50% or more in a zone to which the peptide was added to in an amount of 0.2 nM)
7,182 ({CH2CO}-ERVY[Ala(4-THP)][KCOpipzaa]R[Bip]PY[F3aa][Bip]Y[Phe(4-COOH)][Phe(4-COOH)]SC[βAla][dE]-OH; thioether N-17; not fully specified) [compound 182],A (showed an inhibitory activity of 50% or more in a zone to which the peptide was added to in an amount of 0.2 nM)
8,183 ({CH2CO}-ERVY[Ala(4-THP)][KCOpipzaa]R[Bip]PY[cisHyp][Bip]Y[Phe(4-COOH)][Phe(4-COOH)]SC[βAla][dE]-OH; thioether N-17; not fully specified) [compound 183],A (showed an inhibitory activity of 50% or more in a zone to which the peptide was added to in an amount of 0.2 nM)
9,184 ({CH2CO}-ERVY[Ala(4-THP)][KCOpipzaa]R[Bip]PYP[Bip]Y[Phe(4-COOH)][Phe(4-COOH)]SC[βAla][dE]; thioether N-17) [compound 184],A (showed an inhibitory activity of 50% or more in a zone to which the peptide was added to in an amount of 0.2 nM)
10,185 ({CH2CO}-E[KCOpipzaa]V[Phe(4-COOH)][Ala(4-THP)]DR[Bip]PY[F3aa][Bip][Phe(4-F)][Phe(4-COOH)][4Pal]SC[βAla][dE]; thioether N-17) [compound 185],C (showed an inhibitory activity of less than 50% in 0.2 nM-addition zone and showed an inhibitory activity of 50% or more in 2 nM-addition zone were defined as B or C)
11,186 ({CH2CO}-E[KCOpipzaa]V[Phe(4-COOH)][Ala(4-THP)]DR[Bip]PY[cisHyp][Bip][Phe(4-F)][Phe(4-COOH)][4Pal]SC[βAla][dE]; thioether N-17) [compound 186],A (showed an inhibitory activity of 50% or more in a zone to which the peptide was added to in an amount of 0.2 nM)
12,187 ({CH2CO}-E[KCOpipzaa]V[Phe(4-COOH)][Ala(4-THP)]DR[Bip]PYP[Bip][Phe(4-F)][Phe(4-COOH)][4Pal]SC[βAla][dE]; thioether N-17) [compound 187],C (showed an inhibitory activity of less than 50% in 0.2 nM-addition zone and showed an inhibitory activity of 50% or more in 2 nM-addition zone were defined as B or C)
